In patent US20050267020A1, “Polypeptides derived from inducible hsp70 and pharmaceutical compositions containing the same” (priority 2001, published 2005):

Assays:
HLA-B*0702 = target: T1, HLA-B*0702 (Homo sapiens, UniProt P01889); assay: Measurement of peptide relative affinity to HLA-B*0702; type: binding; settings: for Relative affinity: towards HLA-B*0702 molecule, lower = stronger binding
T1 construct: expressed in transfected cells; host or cells: T2-B7 cells (Tap-/-)
Description: Measurement of Peptide Relative Affinity to HLA class I. Tap−/− cells expressing the studied HLA-class I molecule (3×10^5 cells/mL) were incubated with various concentrations of peptides ranging from 100 μM to 0.1 μM in serum-free RPMI 1640 medium supplemented with 100 ng/ml of human β-2m at 37° C. for 16 hours. Cells were then washed twice and stained with the specific anti-class I mAb followed by FITC conjugated goat anti mouse Ig mAb to quantify the expression of HLA-A*0201. For each peptide concentration, the HLA-specific staining was calculated as the % of the staining obtained with 100 μM of the reference peptide. The relative affinity (RA) is determined as: RA=(Concentration of each peptide that induces 20% of HLA expression/Concentration of the reference peptide that induces 20% of HLA expression). The lower the RA-value, the stronger is the peptide binding to HLA. The mean RA value for each peptide is determined from at least three independent experiments.
For the study of Relative Affinity to HLA-A*0201, Tap−/− HLA-A*0201 T2 cells, the HLA-A*0201 specific mAb BB7.2 and the reference HLA-A*0201-binding peptide HIVpol 589 (IVGAETFYV) were used. For the study of Relative Affinity to HLA-A*0301, Tap−/− HLA-A*0301 T2-A3 cells are used. For the study of Relative Affinity to HLA-B*0701, Tap−/− HLA-B*0701 T2-B7 cells are used.
High affinity peptide discovery was also lead for the MHC molecule HLA-B*0702. 11 peptides presenting the primary anchor motif for HLA-B*0702 or predicted to show a high affinity by the computerized program BIMAS were tested for their Relative Affinity.

[1] = system: COS cells transfected with both Hsp70 and HHD expression vectors; assay: Peptide processing assay on COS-transfected cells, TNF-α secretion by murine CTL; type: cell-based, simian
Excerpt: After contact of murine CTL lines with transfected COS cell, CTL recognition of COS cells is expressed as CTL secretion of TNF-α dosed in supernatant (X Axis, TNF-α ranges from 0 to 500 pg/ml). The graphs represent TNF-α dosage by cytotoxic cell lines, respectively mCTL380, mCTL391 mCTL393 and mCTL134, after contact with COS cells. In each graph, upper to lower bars represent the different cells in contact with CTL, respectively: negative control (no COS cell), COS cells, COS cells transfected with Hsp70 expression plasmid, COS cells transfected with HHD expression plasmid, positive control (COS cells transfected with HHD and pulsed with the respective peptide), COS cells transfected with HHD and with Hsp70 expression plasmids.
Peptide Processing Assay on COS-Transfected Cells. 2.2×10^4 simian COS cells were plated in flat-bottom 96 well plates in DMEM 10% FCS, in quadruplicates for each condition. 18 hours later, the medium is discarded, and 100 ng of each DNA plasmid, encoding for Hsp70 and HLA class I molecules, is put in contact with COS cells in DMEM 10% Nuserum […] Chloroquine 10 mg/mL DEAE Dextran. After 4 hours of incubation at 37° C., transfection medium is discarded, and 50 μL PBS 10% DMSO is added for 2 minutes for integration of plasmids. It is then discarded and transfected COS cells are placed in DMEM 10% FCS for 40 hours. Transfected COS cells are then used with 5×10^4 murine CTL in a TNF-α secretion assay.
(§1) TNF-α Secretion Assay. Transfected COS cells on day 4 or 10^5 target tumor cells were plated in 50 μL RPMI 10% FCS and when necessary incubated with 10 μM peptide for 1 hour. In blocking experiments, anti-HLA class I antibody w6/32 or an irrelevant antibody were incubated with target cells for 1 h30. 5×10^4 T cells were then added in 50 μL RPMI 10% FCS and incubated for 6 hours. Each condition was tested in quadruplicates. 50 μL of the supernatant was collected. Standard dilutions were prepared in 50 μL with final doses of TNF-α (kindly provided by I. Apfler, Bender Wien, Austria) ranging from 10^4 to 0.08 pg/mL. On both the supernatants and the standards were added 50 μL of 3×10^4 TNF-α sensitive WEHI-164c13 cells. They were incubated for 16 hours at 37° C. (23). Inhibition of cell proliferation was evaluated by the MTT colorimetric method. Briefly, 50 μL of MTT at 2.5 mg/mL (Sigma-Aldrich) was added and incubated for 4 hours at 37° C. Cells were then lyzed with 100 μL of a pH4.7 33% N,N-dimethyl formamide (Sigma-Aldrich) 20% SDS solution in water. Two hours after cells lysis, OD was measured at 550 nm on a Dynatech MR5000 spectrophotometer. TNF-α quantitation was calculated by linear interpolation with the standard dilutions.

[2] = system: MCF-7 and SAOS tumor cell lines; assay: Recognition by murine CTL of epitopes at the surface of human tumor cells, TNF-α secretion assay; type: cell-based; settings: HLA-A*0201+ Hsp70+ tumor cells
Excerpt: CTL recognition of tumoral cells is expressed as CTL secretion of TNF-α dosed in supernatant (X Axis, TNF-α ranges from 0 to 1000 pg/ml) after contact with the cells. Upper to lower bars represent the different cells and reagents in contact with CTL, respectively: 2 negative controls (M113, M44), SAOS, MCF-7, MCF-7 blocked with anti-class I (w6/32) antibody before mixed culture, and MCF-7 blocked with an irrelevant antibody before mixed culture.
as §1
We studied whether the over-expression of Hsp70 described in certain tumor cell lines was high enough to enable these epitopes to be presented at the surface of tumor cells. We addressed this question with our already available high-avidity murine CTLs, hypothesizing that such a high CTL avidity enables the recognition of the highest-Hsp70 expressing human tumor cells. […]

HHD mice = assay: Generation of CTL in HLA-A*0201 transgenic HHD mice (immunogenicity); type: in vivo, mouse
Description: Generation of CTL in HLA-transgenic mice. HLA-transgenic mice were injected subcutaneously at the base of the tail with 100 μg of peptide emulsified in incomplete Freund's adjuvant (IFA) in the presence of 140 μg of the I-A^b restricted HBVcore-derived T-helper epitope (128-140; sequence TPPAYRPPNAPIL). After 11 days, spleen cells (5×10^7 cells in 10 mL) were stimulated in vitro with peptide (10 μM). On day 6 of culture, the bulk responder populations were tested for specific cytotoxicity. Upon response, the CTL line was then weekly re-stimulated in vitro with 20×10^6 35Gy irradiated spleen cells in the presence of 1 to 0.1 μM peptide and 50 U/mL IL-2 (Proleukin, Chiron Corp.). Cytotoxicity was assayed 6 days after the last stimulation and TNF-α secretion 11-13 days after, with the addition of 50 U/mL IL-2 on day 7. HHD mice transgenic for HLA-A*0201 were used. B7B7 Kd mice and mice transgenic for HLA-A*0301 are used for the study of the HLA-B*0701 and HLA-A*0301 restricted peptides respectively.

human CD8+ cells = assay: Generation of CTL from human PBMC with peptide- or polyepitope-pulsed dendritic cells, intracellular IFN-γ staining; type: cell-based; settings: CD8+ cells stimulated with peptide-loaded dendritic cells
Description: The three graphs entitled hCTL380, hCTL391 and hCTL393 represent respectively the testing of p380, p391 and p393-specific human CTLs. P391 and p393 specific CTLs were tested towards EBV-B cells, whereas p380 specific CTLs were tested towards T2 cells. The number of IFN-γ producing CD8+ cells for 10^5 CD8+ cells upon activation, indicated on the X-axis, was measured, as assessed by staining cells for CD8 and intracellular IFN-γ.
Polyepitope induced human CTL were tested for their capacity to respond to T2 cells loaded with p380, p391 or p393 or the irrelevant HIVpol589 peptides in intracellular IFN-γ staining. The X axis represents the number of IFNγ-producing CTL/10^5 CD8+ cells. On the Y axis, upper to lower bars represent the results obtained when cells were loaded respectively with irrelevant HIV pol589 peptides, or with p380, p391 or p393 peptides.
Generation of CTL from Human Peripheral Blood Mononuclear Cells (PBMC). Fresh PBMC collected from healthy donnors under informed consent were serologically typed for the studied HLA-class I molecule, and purified using standard Ficoll-Paque (Amersham Pharmacia Biotech AB). Dendritic cells (DC) were prepared by cultivating plastic adherent PBMC in the presence of 500 U/mL GM-CSF (R&D Systems Inc. MN) and 500 U/mL IL-4 (R&D Systems Inc. MN) for 7 days such as described in Keogh et al. (30).
DC were then maturated for 2 days with 2 μg/mL anti-CD40 antibody and 100 ng/mL Poly I:C (Sigma-Aldrich). […] Autologous CD8+ purified T-cells (CD8 MicroBeads, Miltneyi Biotec Inc. CA) were stimulated weekly with DC pulsed for two hours with peptide (10 μM) and irradiated at 35Gy at a T:DC ratio of 10:1 in culture medium (CM; RPMI 1640 supplemented with 10% human AB serum, […] L-glutamine and gentamycin). 1×10^3 U/mL IL-6 and SU/mL IL-12 (R&D Systems Inc. MN) were added during the first week of culture. 20 U/mL clinical grade IL-2 (Proleukin, Chiron Corp.) and 10 ng/mL IL-7 (R&D Systems Inc. MN) were added during the next two weeks of culture. 7 days after the last stimulation with DC, peptide specific IFN-γ secreting CD8+ T cells were magnetically sorted following encounter of the peptide presented by HLA-A*0201+ B-EBV cells (IFN-γ Secretion Assay, Miltenyi Biotec Inc. CA). The characterization of peptide-specific T cells was tested 7 days after the purification step.
Intracellular IFN-g Staining. 5×10^4 T cells were incubated with 10^5 stimulating peptide loaded EBV-B cells or with 10^5 tumor cells in the presence of 20 μg/ml brefeldin-A (Sigma, Oakville, Canada). Six hours later, they were washed, stained with r-phycoerythrin-conjugated anti-CD8 antibody (Caltag Laboratories, Burlingame, Calif.) in PBS for 25 min at 4° C., washed and fixed with 4% PFA. Then, cells were permeabilized with PBS 0.5% BSA 0.2% saponin (Sigma, Oakville, Canada), and stained with allophycocyanin-conjugated anti-IFNg mAb (PharMingen, Mississauga, Canada) for 25 min at 4° C. Cells were analyzed on FACSCalibur (Becton Dickinson, Mountain View, Calif.).

HLA-A*0201 [3] = target: T2, HLA-A*0201 (human); assay: HLA-A*0201 stabilisation on T2 cells, flow cytometry with BB7.2; ratio to reference peptide HIVpol 589
T2 construct: MHC class I molecule on TAP-deficient T2 cells; stabilised at the surface by the added peptide and detected with mAb BB7.2
Description: For each peptide concentration, the HLA-specific staining was calculated as the % of the staining obtained with 100 μM of the reference peptide. […] The mean RA value for each peptide is determined from at least three independent experiments.

HLA-A*0201 [4] = target: T2, HLA-A*0201; assay: decay of peptide-stabilised HLA-A*0201 on T2 cells after Brefeldin A, flow cytometry
Description: Assessment of Peptide/HLA class I Complex Stability. […] Cells were then washed four times to remove free peptide, incubated with Brefeldin A (10 μg/mL) for 1 hour to block cell surface expression of newly synthesized HLA molecules, washed and incubated at 37° C. for 0, 2, 4 or 6 hours. Subsequently, cells were stained with the HLA specific mAb followed by FITC conjugated goat anti mouse Ig mAb.

Row | Molecule | Relative affinity (HLA-B*0702) | Relative affinity (HLA-A*0201 [3]) | also measured
1 | APLSLGLET [HSP 397] | >10 |  | 
2 | DVAPLSLGL [HSP 395] | >10 |  | 
3 | GPGPGGFGA [HSP 616] | >10 |  | 
4 | IPTKQTQIF [HSP 420] | >10 |  | 
5 | IPTKQTQIFT [HSP 420(10)] | >10 |  | 
6 | LLDVAPLSL [HSP 393] |  |  | processing of the peptide: recognition of Hsp70 + HHD transfected COS cells by the specific murine CTL line [1]: are epitopes; presentation of the epitope at the surface of Hsp70 over-expressing human tumor cells [2]: epitope correctly presented at the surface of Hsp70 over-expressing tumors; induction of specific cytotoxic T cell immune response in HHD mice (HHD mice): capable of generating a specific cytotoxic T cell immune response; induction of specific human CTL (human CD8+ cells): capable of stimulating specific human CTL
7 | QVCNPIISGL [HSP 601] | >10 |  | 
8 | STRIPKVQKL [HSP 340] | >10 |  | 
9 | YPEEISSMV [HSP 115] | >10 |  | 
10 | YPEEISSMVL [HSP 115(10)] | >10 |  | 
11 | YPVTNAVIT [HSP 137] | 1.2 |  | affinity for HLA-B*0702 (in words) (HLA-B*0702; Relative Affinity determination): high affinity
12 | YPVTNAVITV [HSP 137(10)] | >10 |  | 
13 | YLGYPVTNAV (also called HSPI34(10)) [HSP 134(10) (YLGYPVTNAV)] |  | 0.6 | 
14 | LMGDKSENV [HSP 380 (LMGDKSENV)] |  | 2.5 | Stability (hrs) (DC50, half life of the HLA-A*0201/peptide complex) (HLA-A*0201 [4]): 4 h
15 | LLDVAPLSL [HSP 393 (LLDVAPLSL)] |  | 0.4 | 
16 | SLFEGIDFYT [HSP 286 (SLFEGIDFYT)] |  | 0.25 | Stability (hrs) (DC50, half life of the HLA-A*0201/peptide complex) (HLA-A*0201 [4]): > 6 h
17 | LLLLDVAPL [HSP 391 (LLLLDVAPL)] |  | 0.5 | Stability (hrs) (DC50, half life of the HLA-A*0201/peptide complex) (HLA-A*0201 [4]): > 6 h
18 | YLGYPVTNA [HSP 134 (YLGYPVTNA)] |  | 2.5 | 
